The assay has as its target T1, 6xHis-DICER (recombinant wild-type DICER) (human, UniProt Q9UPY3 1-1922).
T1 construct: DICER (endoribonuclease Dicer), human; expressed from pFastBac1-hDICER; See Addgene 89144 and the plasmid list in Supplementary Data 1; also called hDICER; recombinant DICER; source: Sf9 (baculovirus, pFastBac1-hDICER), purified (Ni-NTA)
Briefly: SPR; Biacore S200; 6xHis-NSUN2 (0.2 μg/mL) immobilised on CM5 chip at pH 4.0 by amine coupling; 2-fold serial dilutions of 6xHis-DICER (0.00117–0.6 µM) in 50 mM TrisHCl (pH 8), 50 mM NaCl, 5 mM MgCl2, 2 mM TCEP, 0.05% Tween20; equilibrium (steady-state) fit. The conditions noted are these: both partners purified.

Consider one molecule from paper PMC12374970, “NSUN2 facilitates DICER cleavage of DNA damage-associated R-loops to promote repair” (Nature Communications, 2025).

T1 sequence (Q9UPY3 whole entry): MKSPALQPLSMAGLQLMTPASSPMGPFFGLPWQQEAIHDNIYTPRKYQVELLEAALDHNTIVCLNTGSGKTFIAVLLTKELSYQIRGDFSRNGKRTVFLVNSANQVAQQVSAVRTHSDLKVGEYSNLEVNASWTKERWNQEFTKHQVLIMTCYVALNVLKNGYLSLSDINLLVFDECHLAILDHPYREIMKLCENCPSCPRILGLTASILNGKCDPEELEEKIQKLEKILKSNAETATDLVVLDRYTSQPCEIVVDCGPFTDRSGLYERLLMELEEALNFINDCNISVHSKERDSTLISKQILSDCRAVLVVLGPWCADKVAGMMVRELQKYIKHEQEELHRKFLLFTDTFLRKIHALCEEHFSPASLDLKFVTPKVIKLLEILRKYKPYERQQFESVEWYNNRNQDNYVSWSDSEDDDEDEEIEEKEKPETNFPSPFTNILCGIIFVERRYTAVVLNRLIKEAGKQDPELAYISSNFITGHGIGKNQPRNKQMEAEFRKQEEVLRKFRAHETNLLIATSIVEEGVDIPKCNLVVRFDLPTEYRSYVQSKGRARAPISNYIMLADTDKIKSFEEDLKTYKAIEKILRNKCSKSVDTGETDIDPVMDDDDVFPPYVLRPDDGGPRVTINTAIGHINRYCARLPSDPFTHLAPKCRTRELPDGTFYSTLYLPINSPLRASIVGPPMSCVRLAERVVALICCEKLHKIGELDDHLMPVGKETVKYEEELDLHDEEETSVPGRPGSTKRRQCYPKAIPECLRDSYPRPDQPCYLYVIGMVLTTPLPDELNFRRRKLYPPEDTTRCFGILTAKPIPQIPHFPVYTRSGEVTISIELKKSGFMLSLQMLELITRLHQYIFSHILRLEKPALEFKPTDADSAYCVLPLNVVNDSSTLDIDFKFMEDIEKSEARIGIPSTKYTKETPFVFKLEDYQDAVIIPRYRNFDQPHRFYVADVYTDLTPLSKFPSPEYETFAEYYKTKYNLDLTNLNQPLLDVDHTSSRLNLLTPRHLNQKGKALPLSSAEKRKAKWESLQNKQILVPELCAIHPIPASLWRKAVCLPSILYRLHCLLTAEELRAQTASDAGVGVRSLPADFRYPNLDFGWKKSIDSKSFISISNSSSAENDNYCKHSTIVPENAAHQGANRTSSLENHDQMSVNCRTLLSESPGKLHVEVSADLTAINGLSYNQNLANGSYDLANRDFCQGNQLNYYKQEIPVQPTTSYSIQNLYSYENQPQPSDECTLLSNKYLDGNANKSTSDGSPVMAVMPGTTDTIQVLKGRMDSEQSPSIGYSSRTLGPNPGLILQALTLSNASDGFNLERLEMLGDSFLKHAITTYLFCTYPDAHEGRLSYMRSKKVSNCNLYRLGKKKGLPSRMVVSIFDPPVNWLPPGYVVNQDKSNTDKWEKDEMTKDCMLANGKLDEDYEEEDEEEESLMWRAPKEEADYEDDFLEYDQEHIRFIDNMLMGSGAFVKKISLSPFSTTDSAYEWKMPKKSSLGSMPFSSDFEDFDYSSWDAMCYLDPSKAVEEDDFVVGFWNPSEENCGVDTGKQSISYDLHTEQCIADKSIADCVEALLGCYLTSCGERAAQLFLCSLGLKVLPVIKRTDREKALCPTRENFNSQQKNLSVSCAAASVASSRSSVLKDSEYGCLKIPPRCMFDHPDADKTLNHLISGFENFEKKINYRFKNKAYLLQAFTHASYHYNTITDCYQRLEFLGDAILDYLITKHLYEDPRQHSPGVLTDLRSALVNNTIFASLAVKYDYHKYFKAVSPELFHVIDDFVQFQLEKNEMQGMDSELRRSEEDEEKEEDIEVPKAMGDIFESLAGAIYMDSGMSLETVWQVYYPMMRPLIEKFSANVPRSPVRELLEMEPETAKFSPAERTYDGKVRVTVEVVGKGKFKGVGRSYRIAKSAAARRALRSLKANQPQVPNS

B1: 6xHis-NSUN2 (recombinant wild-type NSUN2) (enzyme, human, UniProt Q08J23 1-767, looked up)
chain: MGRRSRGRRLQQQQRPEDAEDGAEGGGKRGEAGWEGGYPEIVKENKLFEHYYQELKIVPEGEWGQFMDALREPLPATLRITGYKSHAKEILHCLKNKYFKELEDLEVDGQKVEVPQPLSWYPEELAWHTNLSRKILRKSPHLEKFHQFLVSETESGNISRQEAVSMIPPLLLNVRPHHKILDMCAAPGSKTTQLIEMLHADMNVPFPEGFVIANDVDNKRCYLLVHQAKRLSSPCIMVVNHDASSIPRLQIDVDGRKEILFYDRILCDVPCSGDGTMRKNIDVWKKWTTLNSLQLHGLQLRIATRGAEQLAEGGRMVYSTCSLNPIEDEAVIASLLEKSEGALELADVSNELPGLKWMPGITQWKVMTKDGQWFTDWDAVPHSRHTQIRPTMFPPKDPEKLQAMHLERCLRILPHHQNTGGFFVAVLVKKSSMPWNKRQPKLQGKSAETRESTQLSPADLTEGKPTDPSKLESPSFTGTGDTEIAHATEDLENNGSKKDGVCGPPPSKKMKLFGFKEDPFVFIPEDDPLFPPIEKFYALDPSFPRMNLLTRTTEGKKRQLYMVSKELRNVLLNNSEKMKVINTGIKVWCRNNSGEEFDCAFRLAQEGIYTLYPFINSRIITVSMEDVKILLTQENPFFRKLSSETYSQAKDLAKGSIVLKYEPDSANPDALQCPIVLCGWRGKASIRTFVPKNERLHYLRMMGLEVLGEKKKEGVILTNESAASTGQPDNDVTEGQRAGEPNSPDAEEANSPDVTAGCDPAGVHPPR
notes: RNA m5C-methyltransferase NSUN2, human; The plasmid list is in Supplementary Data 1; also called NSUN2 wt; recombinant NSUN2; source: Sf9 (baculovirus, pFastBac1-NSUN2), purified (Ni-NTA)
Take B1: the Kd is roughly 500 nM.
